Data taken from the DeepSol protein solubility set.

Assay: soluble on expression in E. coli; label from the status in PepcDB or PDB records

Row | Sequence | soluble on expression in E. coli
1 | MKPSLRIYRYPPPPSQRTPCALTIGNFDGVHLGHQAILARVRQEARARGLVPAVMTFEPHPREYFATLNRRPELAPTRISGLRDKLQALAAAGIEQVAVERFDARLAEMSANAFIEDLLVAGLQTRWLLVGEDFRYGHKRSGDIDLLREAGLAHGFEVCTLADITDRQGHRISSSEVRTALAVGDLDRAAQLLGQPFHISGHVIHGRKLGRELGFPTMNLRVAPRCATRSGIYVVRVLGLQDRPLPAVASLGVRPTVEDRGRVLLEAHLLDESLDAYGKLVRVEFLHKLRDEEKFADLPSLTAAIAQDAQNARAYFAVHGL | not soluble
2 | MKPSSPSRSKGHAKARRKTREELNQEARDRKRQKKRRGHAPGSRAAGGNNTSGSKGQNAPKDPRIGSKTPIPLGVTEKVTKQHKPKSEKPMLSPQAELELLETDERLDALLERLEAGETLSAEEQSWVDAKLDRIDELMQKLGLSYDDDEEEEEDEKQEDMMRLLRGN | not soluble
3 | MKPTERRILLGRIVGAFGVKGELKLESWTEPRSAIFRYQPWIVRTPSGQESVLSGVRGRDQGKNLIAVFPDITDRDTVEAMHGTEIYVARSALPPPKPDEYYWVDLEGLQVETVEGVKLGTVSHLFSTGSNDVVVVRGDRERMIPFVLPEYVKSVDFEANLIVVDWDPDFLEHHHHHH | soluble
4 | MKPTLFLLAAGMGSRYGGLKQLDGLGPNGETIMDYSIYDAINAGFGKLVFVIRKDFEQDFREKIISKYEGHIPCELVFQSIDDLPEGFTCPADRTKPWGTNHAVMMGADVISEPFAVINCDDFYGRDSFQVMGKFLSALPENSKNVYSMVGFRVGNTLSESGTVSRGICSTDANNLLTSVVERTKIQRLDGEVKYIDDNGEWTATPDTTPVSMNFWGFTPDYFAYSEEFFKTFLSDPKNMENLKSEFFIPLMVDKLINDGTATVEVLDTTSKWFGVTYPEDRQSVVDKIQALVDAGEYPAKLF | not soluble
5 | MKPVKVGICGLGTVGGGTFNVLQRNAEEIARRAGRGIEVAQIAVRTPNPNCQIAGTPTTSDVFAVATNPEIDIVVELIGGYTIARDLVLKAIEHGKHVVTANKALIAVHGNEIFAKAREKGVIVAFEAAVAGGIPVIKAIREGLSANRINWVAGIINGTGNFILTEMREKGRTFPDVLAEAQALGYAEADPTFDVEGIDAAHKLTILASIAFGIPLQFDKAYTEGITKLTTADVNYAEALGYRIKHLGVARSTAQGIELRVHPTLIPADRLIANVNGVMNAVMVNGDASGSTLFYGAGAGMEPTASSVVADLVDVVRAMTSDPENRVPHLAFQPDSLSAHPILPIEACESAYYLRIQAKDHPGVLAQVASILSERGINIESIMQKEVEEHDGLVPMILLTHRVVEQRINDAIQALEALQDVVGPVVRIRVEHLN | not soluble
6 | MKQIKNTHYEGERPLFASHGLYLEEVTIHAGESALKECSDIEAVNCRFEGKYPFWHNDGFVVKNCLFTEGARAALWYSRNLKMKDTLVEAPKMFREMDGVELENVQLPNALETLWYCRNVELNNVKIDKGDYLFIHGEDIRIKNFVLNGNYSFQYCKNVEIRHAEIHSKDAFWNTENVTVYDSVLDGEYLGWHSKNLRLVNCKISGTQPLCYAHDLIMENCTMADDADLAFEHSSVKATIKGPVHSVKNPRTGNIVAESFGTIILDENLKAPGNCELKLWDGLTCFD | soluble
7 | MKQKEMIVMSILVKSVSFDDYRNTQLNEKCANFLQSAEMAKLQESQDHIEKVEALVFERDGLRVAQAIVVYKKSFRVFKKALLLHGPLLDYHSSCWFDREILEALILYLRKKNIATLSIHPYLTNLIRNEKLENIEVDKARDVLEVFETLGFEHSLDSEQSLVVNQMFVKSIESFASSDEILAAFSPSLKRDLKKFTALNVKTEELDEHQLDQFYDILSRTAERKGFSVHPLVYFQNLKKYFGKSAKFMLAYLDCPAYLAYLDENIQSFEAKIQDLKEGPQKKRTKGQIADAEDQLRSYYKRLEQFKSYQIKTDKLPLSAYLFMDYGPEIVSFYGGNDEAYLNFGGAVLLHWEMLKYAKSKSKKHFNFYGTIETEAASSGKGNFNFKRQFGGQLETLVGSFDKTLNPFYDILKKTLGKD | not soluble
8 | MKQKIVLATGNKGKVKEMADVLSDFGFEVIAQTDLGIESPEETGLTFVENALLKARYASEKSGLPAIADDSGLVVSALNGAPGLYSARYAGEEGNDAKNREKLLAELAHIAQEQRQAKFVSCIVFLQHPTDPSPIIAEGECCGVIGFEEKGENGFGYDSLFFSPEQGCTFAELETAEKKKISHRAKALSVLKSKL | not soluble
9 | MKQKNENAPRPGGAGRKPKADPAVFRYSISFNAIDHARFLALFDQSGMRTKAHFITARIFGEPFKVIKIDKAAVEYYTRLTALYSQYRGIAVNYNQVVKALNTNFSEKKALAFLYKLEKATIELADLNRQIIELTREFETRWLQR | not soluble
10 | MKQKVVSIGDINVANDLPFVLFGGMNVLESRDLAMRICEHYVTVTQKLGIPYVFKASFDKANRSSIHSYRGPGLEEGMKIFQELKQTFGVKIITDVHEPSQAQPVADVVDVIQLPAFLARQTDLVEAMAKTGAVINVKKPQFVSPGQMGNIVDKFKEGGNEKVILCDRGANFGYDNLVVDMLGFSIMKKVSGNSPVIFDVTHALQCRDPFGAASGGRRAQVAELARAGMAVGLAGLFIEAHPDPEHAKCDGPSALPLAKLEPFLKQMKAIDDLVKGFEELDTSK | soluble
11 | MKQLATPFQEYSQKYENIRLERDGGVLLVTVHTEGKSLVWTSTAHDELAYCFHDIACDRENKVVILTGTGPSFCNEIDFTSFNLGTPHDWDEIIFEGQRLLNNLLSIEVPVIAAVNGPVTNHPEIPVMSDIVLAAESATFQDGPHFPSGIVPGDGAHVVWPHVLGSNRGRYFLLTGQELDARTALDYGAVNEVLSEQELLPRAWELARGIAEKPLLARRYARKVLTRQLRRVMEADLSLGLAHEALAAIDLGMESEQ | soluble
12 | MKQLSFLPGEMTPQDRRLIQRALRALDRHLHEPGVAFTSTHAVREWLRLHMAALEREEFRVLYLDNQNQLIAHETLFTGTINRTEVHPREVVKRALHFNAAAVILAHNHPSGETTPSQADKTLTQRLVQVLQLVDIRVPDHLIVGGRQIYSFAEHGLL | not soluble
13 | MKQPFTQAIENAELAIRNADERNDIFSELLEGLGVGPVAGEVLLGGLNASPKLMQHAEQELIEEVQRRRQQQHQLQGVQGKRRKRPTMMRGMVILEHHHHHH | not soluble
14 | MKRALGVSVYPDHSDINQDKAYLKKASECGFTRIFMSMLEVTDGKEAVQKKFKELISYAKNLGFETILDVVPSIFDELEISYDDLTFFSELGADGIRLDTGFDGNKEAMLTFNPFGVAIELNMSNDVAYLDNILTYEANRPFLYGCHNFYPQAGTALPYDFFEKCSIRFKKEGIRTAAFISSQVGEIGPWDVNDGLPTLEMHRQLPVTVQAKHLFATNLIDDVVIGNAYASNEELEALGQLNRYQTELTIVFEEATSEIEKEIVTKNQHFRRGDITQQMIRSTEVRKKYKNEVNPPHDNQAMLQPGDVVVGNDAFGKYKNELQVVLEPHQDSRKNRVGRIIEEELVLLEFIKPWTKFRFIEK | not soluble
15 | MKRASVWMLLCLFFMLSGCANPSFPPVVDSLSVVISLDVKAETVTFLNAKNGSKIARWNINEPFQGGALSPDGRTLLLYGRDLDRVYRYDLAGGKPLSEWKTGNGIVSAAPSPDGRTWFFGDSTHHAVRVVSRGGKEIARLSVGRSPMTLLVNRQGTELYAIDFQDGRAFVIDASRLRVIRSFSVPKFALGGLMRERRGELWVGGHGSGNKVEKNIHVYSLRDGRLLRTIAAPVMPVDFVETGRGVFVLSHGSNTVYQFLPSGKRLNSVLVGANPFAMEAAGSRLYIASYDSDEIIVVDEATLRPLARWKTGDGPLQLFIREGRT | not soluble
16 | MKREQILSLIAEIDDLLNALNMVVKEIEEKKREFSDKEPDQFILRALGSLLHDFYTIIEDIFELISSEMNGVRLDSFDWHKRLLNKMTLEIPGLRPAVISKRLKEMLDEYLRFRHVFRNVYGYLLQWERMKPLLEKAGAVYERFEEEIERFKDFLRELAEKM | not soluble
17 | MKRFFLFILPVLLVITACKAPEEIVLPDKNLNVADRTIVYKKEPYTGKLVLPKSPRGNEGYMYVKDGHLEGNAEIKNEKDGFLLKYNINAGKFQGELLYKSGDGQLTLNVDKGVILSMQMSNDKEKTEYNFTFTDGLANGVFRHENKKNTAEIVFTDGMAKIENDGNIDVEAKFSINQNTWMITMESFVDGKSYSKTEKFLGINLETIEDIVFSSIEDYKTQK | not soluble
18 | MKRFGRFAGIALVLVVAALTARSCFSHDLIVRLSDRKEISFKQMMGDLRKVAVIYVGEVHDNPDHHVLQLRIIRGLHRAGVPLAIGMEMFTAGSQQELDRWVAGQTGTAAFQRIYRREWNLPWSLYGDILLFARDKRIPLIGLNVPRDITRKVGREGFASLTEDERRKLPPNITCDVDESYMAMIHRSYSSHGLSANTFRNFCEAQMLWNKSMAYHMVEYLRKNPGRTVVVITGGGHAIRGGMPVQVDRERPGLSSRVVLPDPVVRNGRIKAEEADYLWLSHLEHHHHHH | not soluble
19 | MKRFLIITILALSVFSLALTLDDAYRLANITQRKLIMMFSSPTCYYCNLFKKEVFPKEDFQEILIPNFVFVELYATDEKTTLFAKEVLGEESVSYRDLFAGFGVRGTPTFFFFKGKEGLGYLPGYVDKDNFIKILKYVAQELKEDFQTYLKKDDPFVGEPLIIEIFKEDADFVLEKDENAVKVDTVPNEVRRDRIYVTDSPDVAKTLQEKGALRVLLAK | not soluble
20 | MKRIGIDVGGTNTDAVLIDGDTIVASIKVPTTQDVLSGVKAALAHVAGHVGAADRPIDAVMIGTTHFTNAVVERARLERVAALRIALPTGSSLPPMCDWPKDLHDAVDPLIFMVHGGHEYDGSPLVPMIPDEIREAAMKIRDAGITSIAISATFSPLTTECEVRAAEIVRSVIPDARITLSHTLGRIGLLERENVALLNAALQTLGKTTVQAFSDALREAGVKAPFYLTQNDGTVSLADVAAANPVHSFASGPTNSMRGAAFLTGLSDAMVVDVGGTTSDIGCLVGGFPREANNIVHIGGVRTLFRMPDLLPIALGGGTIVDPETGKIGPRSVGYRILTEARVFGGETLTTSDIAVAAGLIEIGDRDRVKDLDSTFVQATLQRIRNMVADSFDQMKTSAEDVPLVAVGGGAFLIPETVPGASDVLRVENAGVANALGAAMAQVSGEVDQVFSGLSRDEALAKAETEAQNAAVASGAERTSLKTLEVEDIPIAYLPGGARRVRVRVIGDIAFHLEHHHHHH | not soluble
21 | MKRILVSGGAGFIGSHLCTRLVNEGHDVICLDNFFTGSKDNIKHLMGNHHFEVVRHDVTYPYSAEVDEIYNLACPASPIHYQHDPIQTAKTSVMGAINMLGLAMRLDAKILQASTSEVYGDPIIHPQPESYWGNVNPVGYRSCYDEGKRCAETLFMDYYRQNQTRIKIIRIFNTYGPRMLPNDGRVVSNFIIQALNNEDITIYGDGKQTRSFQYIDDLIEGMVRMMDTEDDFTGPINIGNPNEFPVLELAERVIRMTGSTSKIVFKPLPTDDPKQRQPDIKLAKEKLGWQPTVELEDGLKRMIEYFKNV | not soluble
22 | MKRIVILGGGFGGLYTALRVSQLPWETQQKPEIVLVDQSDRFLFSPLLYELLTGELQSWEIAPPFIELLEGTGIRFYQAVVSGIDIDQQRVHLQDGPEIPYDRLVLTLGGETPLDLVPGAISYAYPFRTIADTYRLEERLRVLEESDAEKIRVAIVGAGYSGVELACKLADRLGERGRFRLVEISDQILRTSPDFNREAAKKALDAKGVFIDLETKVESIGQNTISLEYKNQVDTIPVDLVIWTVGTRVTNVVKSLPFKQNQRGQITNTPTLQVLDHPDIFALGDLADCIDAEGQQVPATAQAAFQQADYAAWNIWASLTQRPLLPFRLEHHHHHH | soluble
23 | MKRKESAFKSMLKQAAPPIELDAVWEDIRERFVKEPAFEDITLESERKRIFKDFMHVLEHECQH | soluble
